From US7332335

Target: p53, P04637
Sequence (P04637 whole entry, looked up): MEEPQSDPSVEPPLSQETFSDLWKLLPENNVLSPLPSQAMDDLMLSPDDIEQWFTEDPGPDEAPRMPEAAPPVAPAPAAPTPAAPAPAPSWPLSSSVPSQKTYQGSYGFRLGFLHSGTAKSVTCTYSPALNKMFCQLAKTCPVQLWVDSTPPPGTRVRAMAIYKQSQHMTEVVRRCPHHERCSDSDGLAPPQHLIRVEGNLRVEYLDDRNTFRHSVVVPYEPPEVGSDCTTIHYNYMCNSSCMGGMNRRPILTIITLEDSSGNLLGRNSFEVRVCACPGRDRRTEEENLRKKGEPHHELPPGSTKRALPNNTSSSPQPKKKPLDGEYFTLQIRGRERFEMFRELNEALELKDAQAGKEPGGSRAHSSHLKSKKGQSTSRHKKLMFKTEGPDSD

B1: recombinant PP5 (protein phosphatase 5) (protein)
chain: MAMAEGERTECAEPPRDEPPADGALKRAEELKTQANDYFKAKDYENAIKFYSQAIELNPSNAIYYGNRSLAYLRTECYGYALGDATRAIELDKKYIKGYYRRAASNMALGKFRAALRDYETVVKVKPHDKDAKMKYQECNKIVKQKAFERAIAGDEHKRSVVDSLDIESMTIEDEYSGPKLEDGKVTISFMKELMQWYKDQKKLHRKCAYQILVQVKEVLSKLSTLVETTLKETEKITVCGDTHGQFYDLLNIFELNGLPSETNPYIFNGDFVDRGSFSVEVILTLFGFKLLYPDHFHLLRGNHETDNMNQIYGFEGEVKAKYTAQMYELFSEVFEWLPLAQCINGKVLIMHGGLFSEDGVTLDDIRKIERNRQPPDSGPMCDLLWSDPQPQNGRSISKRGVSCQFGPDVTKAFLEENNLDYIIRSHEVKAEGYEVAHGGRCVTVFSAPNYCDQMGNKASYIHLQGSDLRPQFHQFTAVPHPNVKPMAYANTLLQLGMM
dephosphorylation of p53 in vitro: recombinant PP5 can dephosphorylate p53 in vitro
